Measurements as given in patent publication EP4667489A1 (Kyinno Biotechnology Co., Ltd., dated 2025).
Numbering of substitutions follows the chain as printed.

Columns and labels:
[1] = biological target: T1, human PDL1 expressed on 293T-PDL1 cells (human, UniProt Q9NZQ7 19-290); assay: flow cytometry on 293T-PDL1 cells
T1 construct: whole, on cells; in the signalling assays PDL1 stood on 293T OS8-hPDL1 cells (Kyinno KC-1148); also called PDL1-expressing cells; 293T OS8-hPDL1 cells

[2] = biological target: T2, PDL1-hFc (Kyinno, Cat No.: KP-1009) (human, UniProt Q9NZQ7 19-238, limits assumed); assay: flow cytometry, blocking of PDL1 Fc fusion (taken as PDL1-hFc) binding to 293T-PD1 cells
T2 construct: bought; not shown: human Fc (hFc)

[3] = biological target: T1, human PDL1 expressed on 293T-PDL1 cells; assay: cell-based or functional assay
[4] = biological target: T3, PDL1-His (Kyinno, Cat No.: KP-1022) (UniProt Q9NZQ7 19-238, limits assumed); assay: BLI (ForteBio Octet), PDL1-His as mobile phase
T3 construct: not shown: His tag

[5] = biological target: T4, EGFR-hFc (Kyinno, Cat No.: KP-1149) (UniProt P00533 25-645, limits assumed); assay: ELISA, blocking of EGFR Fc fusion (taken as EGFR-hFc) binding to coated EGF-His
T4 construct: bought; also called EGFR-Fc; not shown: human Fc (hFc)

[6] = biological target: T5, human EGFR expressed on CT26-EGFR cells (human, UniProt P00533 25-1210); assay: cell-based or functional assay
[7] = biological target: T5, human EGFR expressed on CT26-EGFR cells; assay: flow cytometry on CT26-EGFR cells
[8] = biological target: T6, EGFR-His (Kyinno, Cat No.: KP-1150) (UniProt P00533 25-645, limits assumed); assay: BLI (ForteBio Octet), EGFR-His as mobile phase
T6 construct: bought; not shown: His tag

[9] = biological target: T7, LAG3-hFc (fusion protein of the human LAG3 extracellular domain and human IgG1-Fc) (human, UniProt P18627 23-450); assay: flow cytometry, blocking of LAG3 fusion protein binding to Daudi cells (procedure of Example 5)
T7 construct: extracellular domain; not shown: human IgG1-Fc, Genbank CAC20454.1
T7 sequence (looked up): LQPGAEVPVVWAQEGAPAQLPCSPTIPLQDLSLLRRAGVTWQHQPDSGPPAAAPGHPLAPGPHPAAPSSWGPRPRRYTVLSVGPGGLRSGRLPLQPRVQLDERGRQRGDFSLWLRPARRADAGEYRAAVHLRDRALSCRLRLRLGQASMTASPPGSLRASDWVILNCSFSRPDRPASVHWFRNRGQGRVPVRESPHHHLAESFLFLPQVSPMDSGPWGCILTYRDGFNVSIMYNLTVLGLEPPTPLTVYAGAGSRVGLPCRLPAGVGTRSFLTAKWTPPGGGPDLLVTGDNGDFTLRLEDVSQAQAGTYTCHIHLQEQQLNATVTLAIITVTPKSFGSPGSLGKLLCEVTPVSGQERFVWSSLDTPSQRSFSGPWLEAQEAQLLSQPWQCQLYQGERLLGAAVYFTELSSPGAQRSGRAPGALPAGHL

[10] = biological target: T8, PD1-hFc (fusion protein of the human PD1 extracellular domain and human IgG1-Fc) (human, UniProt Q15116 25-170); assay: flow cytometry, blocking of PD1 fusion protein binding to 293T-PDL1 cells (procedure of Example 8)
T8 construct: extracellular domain; also called human PD1-hFc; not shown: human IgG1-Fc, Genbank CAC20454.1

[11] = biological target: T9, LAG3-His (ACRO, Cat No.: LA3-H5222) (UniProt P18627 23-450); assay: BLI (ForteBio Octet), LAG3-His as mobile phase
T9 construct: bought protein; not shown: His tag
T9 sequence (looked up): T7 sequence (looked up)

[12] = biological target: T10, human LAG3 expressed on 293T-LAG3 cells (human, UniProt P18627 23-525); assay: flow cytometry on 293T-LAG3 cells
T10 construct: whole, on cells; 293T cells stably expressing human LAG3 (Kyinno KC-0214); also called LAG3-expressing cells
T10 sequence (looked up): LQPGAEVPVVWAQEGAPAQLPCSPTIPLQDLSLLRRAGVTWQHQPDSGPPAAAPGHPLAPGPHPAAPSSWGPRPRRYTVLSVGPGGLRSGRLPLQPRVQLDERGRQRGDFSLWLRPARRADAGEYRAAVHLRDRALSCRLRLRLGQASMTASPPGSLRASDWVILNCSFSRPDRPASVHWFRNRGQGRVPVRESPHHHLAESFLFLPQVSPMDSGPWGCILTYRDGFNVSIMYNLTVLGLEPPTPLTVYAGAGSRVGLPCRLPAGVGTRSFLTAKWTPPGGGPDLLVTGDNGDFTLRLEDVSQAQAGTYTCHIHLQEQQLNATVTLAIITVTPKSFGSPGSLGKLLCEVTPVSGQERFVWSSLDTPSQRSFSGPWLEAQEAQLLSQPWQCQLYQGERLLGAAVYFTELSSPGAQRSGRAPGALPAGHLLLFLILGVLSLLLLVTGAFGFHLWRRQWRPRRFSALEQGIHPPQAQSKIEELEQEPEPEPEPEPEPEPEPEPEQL

[13] = biological target: T11, PD1-His (Kyinno, Cat No.: KP-1023) (UniProt Q15116 25-167, limits assumed); assay: BLI (ForteBio Octet), PD1-His as mobile phase
T11 construct: bought protein; not shown: His tag

[14] = biological target: T12, human PD1 expressed on 293T-PD1 cells (human, UniProt Q15116 25-288); assay: flow cytometry on 293T-PD1 cells
T12 construct: whole, on cells; 293T cells stably expressing human PD1 (Kyinno KC-0204); also called PD1-expressing cells; Jurkat NFAT-PD1-luc cells
T12 sequence (Q15116 25-288): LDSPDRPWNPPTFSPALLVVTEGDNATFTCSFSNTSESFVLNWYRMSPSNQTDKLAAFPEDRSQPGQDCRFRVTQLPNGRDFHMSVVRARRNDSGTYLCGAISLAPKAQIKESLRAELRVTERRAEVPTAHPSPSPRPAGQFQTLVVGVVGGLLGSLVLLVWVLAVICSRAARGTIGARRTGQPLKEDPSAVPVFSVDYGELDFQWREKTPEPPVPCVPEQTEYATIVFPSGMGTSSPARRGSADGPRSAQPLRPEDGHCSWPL

T1 sequence (Q9NZQ7 19-290): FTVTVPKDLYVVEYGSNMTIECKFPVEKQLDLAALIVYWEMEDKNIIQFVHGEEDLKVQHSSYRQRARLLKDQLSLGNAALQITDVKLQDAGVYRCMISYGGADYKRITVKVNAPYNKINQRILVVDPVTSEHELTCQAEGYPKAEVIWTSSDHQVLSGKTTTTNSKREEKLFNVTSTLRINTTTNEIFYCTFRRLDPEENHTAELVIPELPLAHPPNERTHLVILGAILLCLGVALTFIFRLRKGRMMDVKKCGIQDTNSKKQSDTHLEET
T3 sequence (Q9NZQ7 19-238 limits assumed): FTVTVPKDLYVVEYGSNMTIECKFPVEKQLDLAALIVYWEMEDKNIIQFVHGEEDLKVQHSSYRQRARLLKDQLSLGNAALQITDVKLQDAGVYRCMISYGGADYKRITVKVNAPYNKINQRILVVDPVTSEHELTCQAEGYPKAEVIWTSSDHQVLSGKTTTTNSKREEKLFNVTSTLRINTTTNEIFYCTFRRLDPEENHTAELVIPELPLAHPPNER
T11 sequence (Q15116 25-167 limits assumed): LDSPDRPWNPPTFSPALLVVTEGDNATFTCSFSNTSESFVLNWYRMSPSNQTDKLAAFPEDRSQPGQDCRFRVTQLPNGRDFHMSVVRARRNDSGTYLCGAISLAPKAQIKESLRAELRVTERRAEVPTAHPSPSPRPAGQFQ
T8 sequence (Q15116 25-170): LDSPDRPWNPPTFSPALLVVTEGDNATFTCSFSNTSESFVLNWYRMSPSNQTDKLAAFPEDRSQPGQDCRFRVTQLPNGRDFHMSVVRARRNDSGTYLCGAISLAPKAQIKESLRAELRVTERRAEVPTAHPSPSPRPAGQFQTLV
T2 sequence (Q9NZQ7 19-238 limits assumed): as the sequence (Q9NZQ7 19-238 limits assumed) above

B1: anti-PDL1 murine antibody 58E3-2 (hybridoma cell line KD-22-0227 58E3-2) (antibody, V domains shown)
VH: QVQLKESGGGLVKPGGSLKLSCAASGFTFSDYGIHWVRQAPEKGLEWVAFISSGSSTIYYADTVKGRFTISRDNAKNTLFLQMTSLRSEDTAMYYCTRRDFYGSADAMDYWGQGTSVTVSS
VL: QIVLTQSPAIMSASPGEKVTMTCSASSSVSYMHWYQQKSGTSPKRWIYDTSKLASGVPARFSGSGSGTSYSLTISSMEAEDAATYYCQQWSSNPPYTFGSGTKLEIK
notes: murine antibody
- EC50 [1]: 0.245 µg/mL
- IC50 [2]: 0.986 µg/mL
- IC50, luciferase reporter (Jurkat NFAT-PD1-luc + 293T OS8-hPDL1 cells) [3]: 1 µg/mL
- Top (fold increase in activation), luciferase reporter [3]: 3.52
- Kd [4]: 0.431 nM
- koff [4]: 0.000618 s⁻¹
- kon [4]: 1.43e+06 M⁻¹ s⁻¹

B2: anti-EGFR murine antibody 22A12-2 (hybridoma cell line KD-22-0198 22A12-2) (antibody, V domains shown)
VH: EVQLQQSGPELVKPGASVKISCKASGYTFTDYYMNWVKQSHGKSLEWIGDINPNDGGTSYNQKFKGKATLTVDKSSSTAYMELRSLTSEDSAVYYCAREILYYVTSFYFDYWGQGTTLTVSS
VL: B1 VL with S26T, S28G, K52R
notes: murine antibody
- IC50 [5]: 1.58 µg/mL
- IC50, luciferase reporter (293T-NFAT-Luc2-EGFR cells stimulated with EGF-His) [6]: 0.373 µg/mL
- EC50 [7]: 0.0242 µg/mL
- Kd [8]: 1.15 nM
- koff [8]: 0.00111 s⁻¹
- kon [8]: 965000 M⁻¹ s⁻¹

B3: KA-1835 H28G27V4×H107D1210-hIgG4M (bispecific antibody)
heavy 1: QVQLVESGGGLVKPGGSLRLSCAASGFTFSDYGMHWIRQAPGKGLEWVAYISSGSYTIYYADTVRDRFTISRDSAKNSLYLQMNSLRAEDTAVYYCVRRGPGYFGSTALDYWGQGTTVTVSSASTKGPSVFPLAPCSRSTSESTAALGCLVKDYFPEPVTVSWNSGALTSGVHTFPAVLQSSGLYSLSSVVTVPSSSLGTKTYTCNVDHKPSNTKVDKRVESKYGPPCPPCPAPEFLGGPSVFLFPPKPKDTLMISRTPEVTCVVVDVSQEDPEVQFNWYVDGVEVHNAKTKPREEQFNSTYRVVSVLTVLHQDWLNGKEYKCKVSNKGLPSSIEKTISKAKGQPREPQVCTLPPSQEEMTKNQVSLSCAVKGFYPSDIAVEWESNGQPENNYKTTPPVLDSDGSFFLVSRLTVDKSRWQEGNVFSCSVMHEALHNHYTQKSLSLSLG
heavy 2: QVQLQESGPGLVKPSETLSLTCTVSGYSFTSGYYWNWIRQPPGKGLEWIGYVSYFGTANYNPALKNRVTISRDTSKNQFSLKLSSVTAADTAVYYCARGEEWDWSFDVWGQGTTVTVSSASTKGPSVFPLAPCSRSTSESTAALGCLVKDYFPEPVTVSWNSGALTSGVHTFPAVLQSSGLYSLSSVVTVPSSSLGTKTYTCNVDHKPSNTKVDKRVESKYGPPCPPCPAPEFLGGPSVFLFPPKPKDTLMISRTPEVTCVVVDVSQEDPEVQFNWYVDGVEVHNAKTKPREEQFNSTYRVVSVLTVLHQDWLNGKEYKCKVSNKGLPSSIEKTISKAKGQPREPQVYTLPPCQEEMTKNQVSLWCLVKGFYPSDIAVEWESNGQPENNYKTTPPVLDSDGSFFLYSRLTVDKSRWQEGNVFSCSVMHEALHNHYTQKSLSLSLG
light: DIQITQSPSSLSASVGDRVTITCSATSGVSYMHWYQQKPGKAPKRLIYDTSRLASGVPSRFSGSGSGTDYTLTISSLQPEDFATYYCQQWSSNPPYTFGQGTRLEIKRTVAAPSVFIFPPSDEQLKSGTASVVCLLNNFYPREAKVQWKVDNALQSGNSQESVTEQDSKDSTYSLSSTLTLSKADYEKHKVYACEVTHQGLSSPVTKSFNRGEC
notes: PD1×LAG3 bispecific; first heavy chain targets PD1 (hIgG4 Hole), second targets LAG3 (hIgG4 Knob); common light chain 1
- IC50 [9]: 0.879 µg/mL
- IC50 [10]: 0.435 µg/mL
- Kd [11]: 0.168 nM
- koff [11]: 0.000195 s⁻¹
- kon [11]: 1.16e+06 M⁻¹ s⁻¹
- EC50 [12]: 0.228 µg/mL
- Kd [13]: 4.73 nM
- koff [13]: 0.00105 s⁻¹
- kon [13]: 222000 M⁻¹ s⁻¹
- EC50 [14]: 0.651 µg/mL
